From patent US20120322862

Molecular target: 4-1BB (TNFRSF9) extracellular domain (Homo sapiens) (UniProt Q07011)
Experiment: competition
Settings: all dT replaced by TrpdU (5-(N-tryptaminocarboxyamide)-2'-deoxyuridine); all C 5-methyl-dC; inhibition of 4-1BB ligand capture by receptor on Protein A beads (co-IP); PBS/0.02% Tween-20, 37 C

CCTGCACCCAGTGTCCCNGANGGGGNNNNNNAGNNGNANNNNGNAANGGNGGANGNNGANGGAGAGGAGGANGG [1684-40]
IC50: 0.81 nM
